{
  "source": "the DeepSol protein solubility set",
  "data": [
    {"experiment": "soluble on expression in E. coli; label from the status in PepcDB or PDB records", "values": [
      {"sequence": "MSLGTDLLESGEGNKYLVVEKHLKQAINGGVYQADDRLPSIRSLSQELNVSKNTVIRAYQELEAQNLVYSVPKSGYRVKVALPTSRSIPDPTRVDLLSICKEILTYPEYQERLPAGSAHPNIDSPAIKSLYAEIGRHSRQQTHVPSHYQLPPGDHLLIKQLAKITQDLGTPAKLDEIMVTHGAQQAISLALRATTQKGDIVAVESPCYFGNLLMLESLGLKVVEIPSCPRDGMCPEALAKTMATWDIKALIVTPNFTNPTGAMMPLEKRQQLLLASGNIPIIEDDVFGGLSYDKPLPSLSLLDDKQRVIYVNSLSKTLDSRLRIGWMLAGRYRDQIEQYLLCENMGSLNLMQSAVATFLTSGKYRTHTARMGRVYQNNMRRFIQMLHQYLDEYESLKNRYQINAVQGSFLLWLRLPEDTDSYALYQACNKHRISLLPGTVFGTQEQYRHCVRLSVANFGHETDWSHAMQTLAKLIAKRVCEGHHHHHH", "soluble on expression in E. coli": "not soluble"},
      {"sequence": "MGSDKIHHHHHHMIKSVLVIRNDKIGDFVLTWPALYELKMALPNASIEVFVDPVLKDFAMACPYIDHVIVDDGDDQAITKAFAERHYDAVIVSRSQIRTYRLLRKLDIPYKLAPKLNWYQYLYQHRTSIEVPKGLGGWRKSCMMVERFLADHRIPVPTLPTRYWDLSHERRKWQDHYGQQGEERLIFAHPGTGGSSGGISPSDFAGLLAQVDKLTAIECKFVLTYSGQEIALAQQIYDLLSAQGIKVVMAEPLASLADFAKSLVAADMFMAGSTGPLHIAGLHNVPTVGFYAGRRSAPKVRWQTLTQSERRLAFTPPVGKKTGRNMALIDFDLAAKEIAAFLDTQYASQSAVS", "soluble on expression in E. coli": "not soluble"},
      {"sequence": "MGSDKIHHHHHHMKVELDVSELAVGMYVVEITQPKNKFQLAEQGWITKQQVIDGFKRKGIEKLLVDSSKRRPQPSEPAKVNQATMDKQAAQLTKTPGLFKQRLSQAKQLFNESKAIQRRLFDDAQAGVPLTLEPVRRVTDQSIEAIFDNPDALACVINIRHKDQYLLEHSVAVSVLMTIFACYLKIDKEIVSELAIGAFLHDVGKIMIPPSILDKPGRLTTEEFEVMKTHANHSIRIIENTPNISPLSLEVARLHHEKLNGKGYPFGVSAEAISRFGRMIAICDIFDALTANRCYKAGYPQVKAFSILRALGENNELDAELVDHFIKCMGVYPVGSLVQLESNRLAIVESHNHQDPIRPKVKPFYSLNPNHFEISANIDLAAMRDDIIVKNVRADDFDLDMDEIIEFLSHEG", "soluble on expression in E. coli": "not soluble"},
      {"sequence": "MYALEIEQLRKTYAGGFEALKGISLQVKKGDFYALLGPNGAGKSTTIGIISSLVNKTSGKVTVFGYDLDSQLELAKQKLGLVPQEFNFNPFETVEQIVLQQAGYYGVPKALAKERAKKYLTQLDLWEKRSERARNLSGGMKRRLMIARALMHEPQLLILDEPTAGVDIELRRSMWEFLKQINAQGVTIILTTHYLEEAEMLCRHIGIIQRGELIENTTMKSLLGKLHVETFVLDVDGNAPIAPLQGVVKQQMVEGSLEIELEKSQGINHVFTQLTEQGVKVLSMRNKVNRLEELFVSIVNSGKRG", "soluble on expression in E. coli": "not soluble"},
      {"sequence": "MNNSLSDKYNSSSTTLCSSVHAESCPTDTEDAIIRNIKLPGFRGNISRALSQKSNSPSGCRTPTPKTAPPSYEQFQVLRRNSMKSSVQPQRNGILSPAPPVPTSSRANTITVNGAHVQQAMNRIDMSTDSANTILRSPYSTRSDSITSVDSGQCSGDQIERRSNCSTRQESKDDDDTGMPSYARMASTMDHVLRTSSALYTLLSSALDPATCRDLLAKSSVFIQLLESSPCTNYLPKTEMARLKMNVQELQKNRDKGIIDMNNMTNFFAILLRKSIESVLLVFVRIISKNLCESNGKDRLTPICLEHLIHICLFGDELCIEAIQKGCISSVIRIMKNDQPQENTLRFLLRTLAVLCGVSKGALALLTQGGLDLVIDRLLSISSSICSVEAAGILTQLTNPQSAFIRLNHVEPIISRLLDLIDQCKSGDSLLLATAALNNVTLQNPNGVDIMYRNNSIRRLISAYNRENCATVFVQEQIVTAFSRLAARHLDHQMVDQNAIPVLLEFLSLTHPIHADYCRRIRYKAAVCIGTLANSEIGLKALYGNNAYAILSNVLYDDNNSSNPFNMICNNIRTKLESKYQSESAV", "soluble on expression in E. coli": "not soluble"},
      {"sequence": "ELHPRTGRLVSLSACGRTARRQQPGQEFNHGLVLSREPLRDGRVFTVRIDRKVNSWSGSIEIGVTALDPSVLDFPSSATGLKGGSWVVSGCSVLRDGRSVLEEYGQDLDQLGEGDRVGVERTVAGELRLWVNGRDCGVAATGLPPRVWAVVDLYGKCTQITVL", "soluble on expression in E. coli": "soluble"},
      {"sequence": "AEPTTHFGYQNVPESQKAKKVAEVFHSVAAKYDLMNDLMSGGIHRLWKRFTIELSGVRSGNRVLDIAGGTGDLTRQFSRLVGPTGEVVLADINASMLKVGRDKLLDKGVSGNVSFVQADAEKLPFPDNHFDCVTIAFGLRNVTHKDEAIRSMLRVLKPGGRLLVLEFSKPSSNLLSKAYDAYSFSLLPLMGKLVTNDSESYRYLAESIRMHPDQETLKAMMVEAGFDRVTYHNMTGGIV", "soluble on expression in E. coli": "not soluble"},
      {"sequence": "MSHTVAGGGSGDHSHQVRVKAYYRGDIMITHFEPSISFEGLCNEVRDMCSFDNEQLFTMKWIDEEGDPCTVSSQLELEEAFRLYELNKDSELLIHVFPCVPERPGMPCPGEDKSIYRRGARRWRKLYCANGHTFQAKRFNRRAHCAICTDRIWGLGRQGYKCINCKLLVHKKCHKLVTIECGRHSLPQEPVMPMDQSSMHSDHAQTVIPYNPSSHESLDQVGEEKEAMNTRESGKASSSLGLQDFDLLRVIGRGSYAKVLLVRLKKTDRIYAMKVVKKELVNDDEDIDWVQTEKHVFEQASNHPFLVGLHSCFQTESRLFFVIEYVNGGDLMFHMQRQRKLPEEHARFYSAEISLALNYLHERGIIYRDLKLDNVLLDSEGHIKLTDYGMCKEGLRPGDTTSTFCGTPNYIAPEILRGEDYGFSVDWWALGVLMFEMMAGRSPFDIVGSSDNPDQNTEDYLFQVILEKQIRIPRSMSVKAASVLKSFLNKDPKERLGCLPQTGFADIQGHPFFRNVDWDMMEQKQVVPPFKPNISGEFGLDNFDSQFTNERVQLTPDDDDIVRKIDQSEFEGFEYINPLLMSAEECV", "soluble on expression in E. coli": "not soluble"},
      {"sequence": "MTGQPSTPVRPGSVVRTVRRHRGGRSATVQDMVAAEMPVAFNYNGVPFAVMMATPEDLEDFALGFSLSEGIVDHPQDLRVVAVDTFLEGASLQIEIPPERAAALDQRRRNLDGRSGCGVCGNESIEAVLRVPPVLQSALRIDVDALARALDALHARQPIAAQTGAVHAAGWADAQGMVQLVREDVGRHNALDKLIGALARARVDATQGFAVVTSRASYEMAMKAAQARIPLLAAISAPTALAISLADSAGLTLIGFARDHDCVVYSHPQRLDLGVAVGEPALEHHHHHH", "soluble on expression in E. coli": "not soluble"},
      {"sequence": "MVNLDAEIYEHLNKQIKINELRYLSSGDDSDTFLCNEQYVVKVPKRDSVRISQKREFELYRFLENCKLSYQIPAVVYQSDRFNIMKYIKGERITYEQYHKLSEKEKDALAYDEATFLKELHSIEIDCSVSLFSDALVNKKDKFLQDKKLLISILEKEQLLTDEMLEHIETIYENILNNAVLFKYTPCLVHNDFSANNMIFRNNRLFGVIDFGDFNVGDPDNDFLCLLDCSTDDFGKEFGRKVLKYYQHKAPEVAERKAELNDVYWSIDQIIYGYERKDREMLIKGVSELLQTQAEMFIF", "soluble on expression in E. coli": "soluble"},
      {"sequence": "MTSSQLVKMRLELRRGVLVLAVLGLLKQPHYGYSLRKQLQDGGIDIDEGTLYPLVRRLAEQGLLDSEWRQAEGRERRYYQLSSSGAELLSQLTEEWQQLNGALAFLLGQVTDENAEEN", "soluble on expression in E. coli": "not soluble"},
      {"sequence": "MLEEYEKKRDFNKTSEPPARGEEKNSDKPVFVVQRHDATNLHYDFRLEMDGVLKSWAVPKEPPKSPGTRRLAIETEDHPLGYADFEGEIPEGQYGAGRVEIWDRGTFELLKRNEKEIIITLHGEELEGDYVLIKTKYGKEDKGWLFFKKKTGLEHHHHHH", "soluble on expression in E. coli": "soluble"},
      {"sequence": "SDEDGLPLMGSGIDLTKVPAIQQKRTVAFLNQFVVHTVQFLNRFSAVCEEKLADLSLRIQQIETTLNILDAKLSSIPGLEDVTVEVSPLNVTAVTNGSHSETTSEQTQQNSTQDSGAQESEAPSENVLTVAKDPRYARYRKMVQVGVPVMAIRDKMISEGLDPELLEKPDAPVPNGESKRAVEESSDSDSSFSD", "soluble on expression in E. coli": "soluble"},
      {"sequence": "MSLNSMELLIIKERRIDYDGSAIRSHWAYRNFGILGDSLVVFRGKCNVKVEEMVDIEDLRLRKEIKGDDMVHYILELFWHPDILLASSLQKLLIARLVELLWNYGIEASRRGDDIYVNGRKLSISIATVSPVSIKIHIGLNVKTVGVPPGVDAIGLEELGIDPTEFMERSAKALVEEIEKVRKDSLKVRWVTEGHHHHHH", "soluble on expression in E. coli": "soluble"},
      {"sequence": "MIGFAACECIIYNARSLKDKRAVLQRVMTRIRQKYNVSVAEIDHQDAWQRATIGLVAITSSRRATERELERALALIDSFPELERAATSFEWL", "soluble on expression in E. coli": "not soluble"},
      {"sequence": "MDQKTRIVAAVIKGVKLPPRFRLRLLKEDPVRLELSLTPAYGKDPVTVGLVESLDLVARRDREGRIPRDLQGTWDWTVRHGKVSTGGWNPYLKEALQTMFETGLPAIVFEELTGEEYHPVDGTRHVR", "soluble on expression in E. coli": "not soluble"},
      {"sequence": "GSSMVTGGMASKWDQKGMDIAYEEALLGYKEGGVPIGGCLINNKDGSVLGRGHNMRFQKGSATLHGEISTLENCGRLEGKVYKDTTLYTTLSPCDMCTGAIIMYGIPRCVIGENVNFKSKGEKYLQTRGHEVVVVDDERCKKLMKQFIDERPQDWFEDIGE", "soluble on expression in E. coli": "soluble"},
      {"sequence": "MGSDKIHHHHHHMLENTGLVLEGGGMRGVYTGGILEYFMEQDLYFPYVIGVSAGACHAASYLSRQRNRNKTVNIDYASHPKYLSYKNLWRKRQLFDMDFIFHEIPEKHVPFDFETYFNSPERFLVGTTDCETGQSVYFEKEGTNDDALNLLQASSSLPFIAPVVNYRGKQLLDGGISDPIPVRKAQEDGFKKSVVILTRNHGYAKKKSRFGWIAAKAYKKYPNLVNTMLNRYEVYNETLHYIEKEEQAGNLFVIRPEVPLQVDRMEKDTAKLQNLYEQGYEDAKRQFADLKAFLQK", "soluble on expression in E. coli": "not soluble"},
      {"sequence": "MPVKKESNAELDLDWRCRDGSSLVASLQPKPDPQKTGNYRKAKVSTTVSIPTAKATGNAPKYLPPHLRNRQESENKEEDDESECNSDTEKHSVISDQFSDSVDETSVKKIRIHWRGRRWTRGIECIGVQVDSQITRYSKLDDKCVRKSNSGRETTQTGCISDFAFAEVARLLKTPEIELELFAVDVPPFIQGEPRESYFNAMEKTFNLENVTRVNAKRVRLIGLTISEMEAVLKWVSVENLVVIRVYSGKNSIDERGAIVIQNMLSIFPQLQVGSFHMIVSNPLGVAKTFDEIYSDRLVKTPIILKGLDEEPKFNMKITSCDIQVRRESKKKKVTQI", "soluble on expression in E. coli": "not soluble"},
      {"sequence": "MPESSRDKGNAAISGNRSVLSIASPTKLNILSSDWSRNQGKVSKNSLKRSSSLNIRNSKRPSLQASANSIYSRPKITIGAPPLIRRDSSFFKDEFDAKKDKATFSAYSSRSYPTIGSESVVSQTSLSQPTTSREVDEQFTVAADRYIPILQGASQNKVDPETLHEALPPPNASPISHLRAQTKIVFKQNVAEACGLDMNKRILQYMPEPPKCSSLRQKSYIMKKRTHYSYQQEQKIPDLIKLRKINTNPERILDAPGFQDDFYLNLLSWSKKNVLAIALDTALYLWNATTGDVSLLTDFENTTICSVTWSDDDCHISIGKEDGNTEIWDVETMSLIRTMRSGLGVRIGSLSWLDTLIATGSRSGEIQINDVRIKQHIVSTWAEHTGEVCGLSYKSDGLQLASGGNDNTVMIWDTRTSLPQFSKKTHTAAVKALSWCPYSPNILASGGGQTDKHIHFWNSITGARVGSINTGSQVSSLHWGQSHTSTNGGMMNKEIVATGGNPENAISVYNYETKFKVAEVVHAHEARICCSQLSPDGTTLATVGGDENLKFYKIFDPRCTGRSREDGLMDGMLGLIGKEGCRTNDKENRSKNSSEIHTRRPSSTSQYLIR", "soluble on expression in E. coli": "not soluble"}
    ]}
  ]
}
